Source: patent US20220372111A1

Assays:
[1] = biological target: LDL receptor-related protein 1 (LRP1), purified from human placenta (human) (UniProt Q07954); assay: SPR equilibrium analysis, LRP1 immobilised
[2] = biological target: LDL receptor-related protein 1 (LRP1), purified from human placenta (human) (UniProt Q07954); assay: SPR equilibrium KD relative to I91L PAI-1

UniProt Q07954, sequence (Q07954 20-4544): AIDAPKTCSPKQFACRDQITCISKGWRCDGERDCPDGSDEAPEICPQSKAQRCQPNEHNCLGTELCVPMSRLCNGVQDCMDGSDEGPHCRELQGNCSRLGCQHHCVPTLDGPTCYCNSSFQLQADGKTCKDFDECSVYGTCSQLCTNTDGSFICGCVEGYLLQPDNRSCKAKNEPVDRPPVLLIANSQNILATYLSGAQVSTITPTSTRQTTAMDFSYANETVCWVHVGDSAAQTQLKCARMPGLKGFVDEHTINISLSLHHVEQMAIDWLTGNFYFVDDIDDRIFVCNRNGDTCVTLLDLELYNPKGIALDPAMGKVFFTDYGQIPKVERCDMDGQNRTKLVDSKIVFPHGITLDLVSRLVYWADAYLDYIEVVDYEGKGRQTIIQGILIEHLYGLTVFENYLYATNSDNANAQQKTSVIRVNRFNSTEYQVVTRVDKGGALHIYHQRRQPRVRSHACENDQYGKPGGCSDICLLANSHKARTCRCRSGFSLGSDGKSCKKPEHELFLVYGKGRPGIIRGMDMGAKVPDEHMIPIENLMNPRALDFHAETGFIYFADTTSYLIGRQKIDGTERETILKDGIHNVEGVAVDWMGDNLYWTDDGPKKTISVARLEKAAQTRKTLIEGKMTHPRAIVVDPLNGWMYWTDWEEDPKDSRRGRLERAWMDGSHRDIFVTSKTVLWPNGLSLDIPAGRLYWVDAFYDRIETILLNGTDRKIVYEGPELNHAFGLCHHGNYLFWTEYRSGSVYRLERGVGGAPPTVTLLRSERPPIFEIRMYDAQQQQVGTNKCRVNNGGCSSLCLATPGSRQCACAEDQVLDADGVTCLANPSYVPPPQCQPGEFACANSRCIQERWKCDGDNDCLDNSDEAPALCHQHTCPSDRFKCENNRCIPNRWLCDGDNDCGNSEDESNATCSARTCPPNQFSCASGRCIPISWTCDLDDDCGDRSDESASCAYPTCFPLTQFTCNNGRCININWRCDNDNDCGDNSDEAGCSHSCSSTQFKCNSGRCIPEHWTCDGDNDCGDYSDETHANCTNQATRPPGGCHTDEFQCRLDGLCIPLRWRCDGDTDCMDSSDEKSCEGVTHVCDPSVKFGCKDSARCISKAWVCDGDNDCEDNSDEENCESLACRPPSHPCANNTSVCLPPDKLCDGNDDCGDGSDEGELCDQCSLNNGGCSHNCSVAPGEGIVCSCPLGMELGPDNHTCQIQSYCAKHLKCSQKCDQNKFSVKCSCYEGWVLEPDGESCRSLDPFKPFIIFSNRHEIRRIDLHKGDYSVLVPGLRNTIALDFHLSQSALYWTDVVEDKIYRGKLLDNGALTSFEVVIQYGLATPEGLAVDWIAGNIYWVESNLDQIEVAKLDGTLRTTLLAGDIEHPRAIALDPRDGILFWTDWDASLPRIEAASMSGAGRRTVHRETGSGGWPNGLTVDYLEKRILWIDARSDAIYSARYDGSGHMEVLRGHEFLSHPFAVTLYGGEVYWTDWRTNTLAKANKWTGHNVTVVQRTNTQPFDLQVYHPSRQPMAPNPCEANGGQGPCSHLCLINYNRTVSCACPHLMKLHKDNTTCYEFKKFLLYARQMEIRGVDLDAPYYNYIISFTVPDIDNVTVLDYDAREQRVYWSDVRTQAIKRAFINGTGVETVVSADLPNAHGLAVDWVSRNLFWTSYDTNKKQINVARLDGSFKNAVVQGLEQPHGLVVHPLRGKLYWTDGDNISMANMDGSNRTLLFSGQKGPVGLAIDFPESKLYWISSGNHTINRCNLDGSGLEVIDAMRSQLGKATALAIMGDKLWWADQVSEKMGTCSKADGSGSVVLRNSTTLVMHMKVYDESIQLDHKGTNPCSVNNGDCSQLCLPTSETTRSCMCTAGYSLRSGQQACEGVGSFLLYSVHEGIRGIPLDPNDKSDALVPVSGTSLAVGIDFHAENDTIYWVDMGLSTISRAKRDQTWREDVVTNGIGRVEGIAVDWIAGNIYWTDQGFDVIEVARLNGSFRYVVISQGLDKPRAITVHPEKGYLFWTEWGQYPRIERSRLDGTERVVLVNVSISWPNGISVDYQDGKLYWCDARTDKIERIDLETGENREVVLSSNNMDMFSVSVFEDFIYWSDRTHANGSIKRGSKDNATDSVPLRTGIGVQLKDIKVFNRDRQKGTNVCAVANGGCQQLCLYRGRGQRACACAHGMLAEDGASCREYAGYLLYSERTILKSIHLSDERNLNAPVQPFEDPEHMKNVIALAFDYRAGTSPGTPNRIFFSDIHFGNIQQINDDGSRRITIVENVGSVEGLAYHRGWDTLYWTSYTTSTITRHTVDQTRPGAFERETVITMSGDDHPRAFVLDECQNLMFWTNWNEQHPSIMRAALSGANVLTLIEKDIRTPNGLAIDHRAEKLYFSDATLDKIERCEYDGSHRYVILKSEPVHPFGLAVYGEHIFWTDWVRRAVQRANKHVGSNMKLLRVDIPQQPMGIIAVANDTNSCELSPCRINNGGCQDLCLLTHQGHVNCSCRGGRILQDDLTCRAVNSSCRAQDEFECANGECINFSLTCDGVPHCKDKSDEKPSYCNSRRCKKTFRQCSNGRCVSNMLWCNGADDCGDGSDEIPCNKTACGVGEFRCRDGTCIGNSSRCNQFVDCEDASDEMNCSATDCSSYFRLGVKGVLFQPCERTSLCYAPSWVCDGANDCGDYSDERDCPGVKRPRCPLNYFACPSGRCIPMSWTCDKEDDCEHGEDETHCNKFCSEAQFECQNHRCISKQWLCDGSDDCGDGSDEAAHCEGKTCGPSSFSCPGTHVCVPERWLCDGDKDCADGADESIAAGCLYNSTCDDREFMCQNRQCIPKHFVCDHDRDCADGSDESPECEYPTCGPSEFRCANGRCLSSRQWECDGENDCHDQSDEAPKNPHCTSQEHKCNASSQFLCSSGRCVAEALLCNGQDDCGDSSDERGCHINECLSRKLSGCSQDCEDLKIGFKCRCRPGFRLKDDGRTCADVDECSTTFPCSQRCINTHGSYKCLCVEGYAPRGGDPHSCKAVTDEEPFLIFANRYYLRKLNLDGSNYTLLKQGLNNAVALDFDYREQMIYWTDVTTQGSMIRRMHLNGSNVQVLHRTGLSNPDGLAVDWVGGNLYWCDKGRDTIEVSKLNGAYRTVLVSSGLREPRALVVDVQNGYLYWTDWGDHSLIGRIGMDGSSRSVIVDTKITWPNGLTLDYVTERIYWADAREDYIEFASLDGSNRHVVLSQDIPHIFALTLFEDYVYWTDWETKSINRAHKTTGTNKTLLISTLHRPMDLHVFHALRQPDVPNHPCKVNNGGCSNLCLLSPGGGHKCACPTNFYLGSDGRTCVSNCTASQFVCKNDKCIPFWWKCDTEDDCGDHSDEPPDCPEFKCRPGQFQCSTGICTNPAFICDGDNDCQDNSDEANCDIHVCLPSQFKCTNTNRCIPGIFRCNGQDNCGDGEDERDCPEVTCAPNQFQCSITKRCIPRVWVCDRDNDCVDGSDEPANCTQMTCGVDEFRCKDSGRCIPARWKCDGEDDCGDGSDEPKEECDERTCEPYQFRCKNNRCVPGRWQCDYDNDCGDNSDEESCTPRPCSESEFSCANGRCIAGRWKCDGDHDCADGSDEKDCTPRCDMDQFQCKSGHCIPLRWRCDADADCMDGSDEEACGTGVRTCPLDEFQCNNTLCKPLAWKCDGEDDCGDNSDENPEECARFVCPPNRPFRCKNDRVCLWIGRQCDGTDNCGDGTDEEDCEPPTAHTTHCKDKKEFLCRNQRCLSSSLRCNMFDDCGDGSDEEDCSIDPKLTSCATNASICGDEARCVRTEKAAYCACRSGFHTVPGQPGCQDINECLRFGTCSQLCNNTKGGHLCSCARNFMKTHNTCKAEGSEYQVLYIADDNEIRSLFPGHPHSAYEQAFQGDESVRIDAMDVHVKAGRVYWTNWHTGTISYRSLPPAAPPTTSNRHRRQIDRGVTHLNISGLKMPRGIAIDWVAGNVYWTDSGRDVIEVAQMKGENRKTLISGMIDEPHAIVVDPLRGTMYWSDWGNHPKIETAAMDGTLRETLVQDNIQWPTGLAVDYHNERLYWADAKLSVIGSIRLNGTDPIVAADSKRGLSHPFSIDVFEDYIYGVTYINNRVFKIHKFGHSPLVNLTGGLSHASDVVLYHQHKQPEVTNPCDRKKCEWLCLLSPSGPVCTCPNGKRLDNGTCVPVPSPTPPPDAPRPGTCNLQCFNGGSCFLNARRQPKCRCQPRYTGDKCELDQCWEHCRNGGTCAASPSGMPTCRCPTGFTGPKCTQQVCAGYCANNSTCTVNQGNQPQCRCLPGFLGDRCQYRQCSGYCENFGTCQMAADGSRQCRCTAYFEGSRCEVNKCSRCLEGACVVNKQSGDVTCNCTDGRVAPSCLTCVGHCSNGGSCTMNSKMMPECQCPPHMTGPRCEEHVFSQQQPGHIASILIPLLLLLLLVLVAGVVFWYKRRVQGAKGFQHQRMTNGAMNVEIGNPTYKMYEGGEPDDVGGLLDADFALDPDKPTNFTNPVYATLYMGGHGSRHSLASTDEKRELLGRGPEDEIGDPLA

“14-1B R76E PAI-1 (from UniProt P05121 24-402)” gave a Kd [1] of 1770 nM and a Fold change [2] of 32 fold.
